# Experimental data as given in PMC3772059.
# Test system: TTF-IΔN348
# Test: MST
# Conditions: 5 mM MgCl2; Hill coefficient 1; MST: 50 nM DNA, 5 nM-2.4 uM protein, 80 mM Tris-HCl pH 7.6, 80 mM KCl, 0.2 mM EDTA, 5 mM MgCl2, 10% glycerol, 0.05% IGEPAL CA-630, 10 min at 30 C; EMSA and …
substance,measurement,value
T2 Sal-box 30-mer oligonucleotide,Kd,500 nM
